Laboratory results taken from publication PMC11288887 (2024).
No end group written: not given here.

Columns and labels:
Assay in all cases: FP
(DLP)6 binder = target: (DLP)6 binder
(DLS)6 binder = target: (DLS)6 binder
(KLP)6 binder = target: (KLP)6 binder

| Kd ((DLP)6 binder) [nM] | Kd ((DLS)6 binder) [nM] | Kd ((KLP)6 binder) [nM] | Binder |
| --- | --- | --- | --- |
| ~1000 | ~1800 | – | tetramethylrhodamine-KLPKLPKLPKLPKLPKLP [(KLP)6] |
| – | 0.7 | 4.6 | tetramethylrhodamine-DLPDLPDLPDLPDLPDLP [(DLP)6] |
